According to patent US20210290676A1, “IMPROVING THE EFFICACY AND SAFETY OF ADOPTIVE CELLULAR THERAPIES” (University of Southern California, priority 2018, published 2021):

Experiment: Leukapheresis with and without mobilization and manufacturing of CAR-T/TCR-T cells from cancer patients
Assay type: in vivo, human
Conditions: mobilization prior to leukapheresis
Description: A study is conducted to compare the generation of cell therapy products from cancer patients who have received 2 or more cycles of prior chemotherapy. Patients with different types of different cancers (e.g., diffuse large B cell lymphoma, acute B-ALL, CLL, multiple myeloma, breast cancer, ovarian cancer, lung cancer etc.) are eligible. Leukapheresis products are collected from the subjects with and without mobilization with Perixafor (0.24 mg/kg subcutaneously daily on days 1-3). T cells are isolated and used for manufacturing of CAR-T and TCR-T cells using lentiviral mediated gene transduction as described in the preceding sections.

B1: G-CSF: cytokine, G-CSF (filgrastim, Amgen) (protein, chains of the INN, looked up)
chain: MTPLGPASSLPQSFLLKCLEQVRKIQGDGAALQEKLCATYKLCHPEELVLLGHSLGIPWAPLSSCPSQALQLAGCLSQLHSGLFLYQGLLQALEGISPELGPTLDTLQLDVADFATTIWQQMEELGMAPALQPTQGAMPAFASAFQRRAGGVLVASHLQSFLEVSYRVLRHLAQP
With B1 the “yield of leukapheresis product for generation of CAR-T cells” value was “improve the yield”.
